Measurements published in a protein production outcome set (Wang et al. 2014).

Test: label from the status in PepcDB records

Sequence	protein production
MNLYADYEYYTSTYKGNLAKEEFEKSIMKASAYVRRITFGRADDNMEMEEVKLAACSVCDLIANDEKVRSKHSGRAVTSENTDGYSVSYESGGNGETADDLLKRNIFDTLLLYLEPTRLLYMGVELLEHHHHHH	not failed
MTVGIIGAGNIGGAFATALGKAGIEAVIANSRGPESLTALVSKLGSTIRAGSVPEAAAQAIVLVAVPWSKIPGALAGLNFGDRIVIDANNSIEAPLYRPADLGGRTSTDIFTALVPGARVVKAFNHLTPKQLSGDPHSEGGRRVLFYSGDDMRAKAEVGAIIDRIGFFGIDLGGLPVGSQLLQFPGGPLPALNLVKFD	failed
MSVFAGLVEQLADVLQPLFHASAAAAAIVLFTALVRLLVHPLSRASARGQRARARLQPQVAELRKKHGKNPEKLQKALLELHAEEKVSPLSGCLPGLFQLPAFFLLYHLFSNTTIGGEGNELLTHTLFTAPLGDRWADALGDGGPFGTQGLVYLGLFAIVAAVATFNYRRTKRTMAANPLPVGDGEQQVPGLGAINRFMPLMSFFTLFTVAFVPLAAALYVVTSTTWSAVERAALYPVPERSS	failed
KIGKHTIKFPIFQGGMGVGISWDELAGNVAKEGALGVISAVGTGYYKNMRFVERIVAKKPFEALNFYSKKALNEIFANARKICGNNPLGANILYAINDYGRVLRDSCEAGANIIITGAGLPTNMPEFAKDFSDVALIPIISSAKALKILCKRWSDRYKRIPDAFIVEGPLSGGHQGFKYEDCFKEEFRLENLVPKVVEASKEWGNIPIIAAGGIWDRKDIDTMLSLGASGVQMATRFLGTKECDAKVYADLLPTLKKEDILLIKSPVGYPARAINTGVIKRIEEGNAPKIACVSNCVAPCNRGEEAKKVGYCIADGLGRSYLGNREEGLYFTGANGYRVDKIISVHELIK	failed
MDSDPLGVFPNSPKYHPYYSQTTEFGGVIDLGLSLRTIQHEIYHSSGQIMTCGKGYCSNEGYRRKWGYVKVTMDGLVVGRKVCVLDHGSYSTLAHQLEDMFGMQSVSGLRLFQMESEFCLVYRDEEGLWRNAGDVPWNEFIESVERLRITRRNDAVLPF	failed
MAEHAPHFTITPLGGLGEIGLNCQVWSTADSTVLIDCGLMFPDDYHLGVDVVIPRFDHILQQRDKVRGIILTHGHEDHIGALPWLVPHLRGIPIFGSRFTLALVEHKLREHGLADRVEFVPVTPGTPLALGDMTFHFLPVCHSIIEGYAVGVETPVGRVLHTGDFKIDPHPLEGSGTDLDLFRSFAGDEGVRLLLSDSTNIEREGHSLPEREILSSFRHIFTEAQGRIVITLFSSHIQRIQEVFDLAAEFGRTVVVSGRSLMTNIELAREHGFLRVPPALHMDAAGLPPVADRDMVLLVTGSQGEPLSALSRITMGEHKHLTIHEGDTVVMSSRIIPGNARAITRLINQIYRLGAEVYYDKFRAIHASGHAHRDELRAMIETMRPQCFVPVHGEYRHLVKHARLAQECGVAPERAFILENGDPLTLLPQGVRLGERIHVESILVDGKGVGDVGHSVLKERHILGGEGMVIVVLVVDEVTWDVLHGPEMLSKGFVFEQHYNHVLEDAKCIVLDIFENIPPGETERLQDRIRSALRRFFRKVLERDPIVVPVITTI	failed
MPGHVPPDLAVIEVTERRTRRSPAGYRPRMSEVVQVGAWGLLAGSALLLGAAIGFGVRVSQKVIATVMAFGAGVLISAVSYELVGEAYEQAGLAPAAIGTVIGAAAYTLGNLWLARRGARHRKRSGHHTAQAQPSEAQQGGSGLALAFGALLDGVPESAVIGVSLLDGGTVSTVTVAAVFISNVPEGLSSSAGMKRAGRGTTYVFGVWGAIAATSTLAAVLGYTVVGAFSPAVIAAVTAVAAGAILAMIADTMIPEAFEDAHLAIGLVTVSGFLVSFALSHV	failed
MEKENDENITKKLSLKKVLFNSLFVSLSILVLGFVINYKYAVGYIFILVIHELGHYIIAKFLKVSVAFGGFTPVGAYIIHENPKNCKENALIAMGGPLFGGLLGLIYYIVYYVTGNNTFLVLTFTSIILNLGNLIPVSPLDGGQIAEAISPTLCYIGFPVLIYLFILLNSLKSKILLLFIIVAGIYQTYYFTMKYKTDPYYKLDKPSKIKFIFIYSILVLSLTISAIYLYNSFDFKDIFHSIARFK	failed
MMRLRGIPQVFRFLLLLVLAGLAGCASKAPAPEKVAPVYQPEQSKEWERQGRQAYEAGDRKMALEAWHQAVAADPANVRVRNNLALLLKEQERFEEAAEMLEAGLKVTPKVAELHYNLAVISELYLLDLDKALEHYQHYQSLVGEEGSQVAGWIADLERRLE	failed
MTVLDKVNDPTDIKALTPLELEELATNVRDAILNRVSQYPGGHLGPNLGVVEMTIALHKVFNSPVDKLIWDVSHQSYPHKVLTGRKEFFTDKDKFSGTTGYTDPEENEHDFIRVGHTSTSIATAMGYALARDVQGKKENIVAIIGDGALSGGLAFEGLDGAGTLNGNLIIIVNDNEMAITENHGGIYQHLADLRASKGTSANNLFKSFGLDYRYLEEGNDIQSLIVLFESVKDINRPIVLHIHIEKGHGYKPAVENKEGMHQVFAPFDIATGQPVNSSTNIVRSYNNVFLDFMEEKLAKGDNLIAINAAIPMFFGLSQFAKNHPKNYVDGGIAEQYTVTLGGAIAAAGTRAIIFQNATFLQRAYDQLNHDLALNKEPAIVIISNSQIGGTNDTHQGSFVYSQTSNIPNVIDLAATSEEDLFAMLNWAYNQHEHPVFIHLPEHTLENRPTKITDFSKPQYEVVKSGEKVAILGLGAMLEKAENVAEELEKSGFNPTVVNPFFANLLDVAALDKLSETHGLFVTIEDGTKDGGFGQKVATYLASKGIKTLVYGADTEFIDAVPKEELYNRYHIRPELMATDIIEATKESKGPNFFKKIFSKLEHHHHHH	not failed
MGEPNLQLSLLYVIAIFTSAILLSARMSLLITLLAVIAVIYQRFVGSLFDYNNLNTIGNSALLAFLFFVVHRIGQIAVQRFKLLEALTFHQSIELYQLQNINRYILEQIEEGYLVLDENYDIVVSNPAACSLLGIPPQFANEKYPLAKWHADLFEILKFGDLKEGDRFIFESRLSAYSINIKVQHLLVPQQTLTLLILQDAQQINQQAQQLKLAALGQLSASIAHEIRNPLAAIVQANELLKDSDPEQQNTLRHMIGKQTKRIDSIVQDTLGLARSERTHPIQIDVKHFIDTLLEEDLFDVKHSIQLKISDSSLKFLFDEKQLRQVMINLVRNALRHNATDSPYITINIHSQTNKIYIDVIDYGEGVSKRDISQLFKPFFSTEINGTGLGLYLSHSFCEANHAKLTYVEQKQGACFRIECPIIY	failed
MRLSILRARSTGSGQASPRASRTRGARSAAAGGSWVVIFLPLHCGTRSLTMPRRARNAQTASSCSLERPNEWKEPPPVSGFEVTIVDAESVIAWVKAGKVTVFDVREPEEFAAAHIEGAIPNPLSRFDASLIPTDSPVPVVLHCRSGVRCGHAADRLRASGFQGKINRMAGGIIAWQAAGGPVVSG	failed
MGANEDQEMELEALRSIYEGDNSFRELSPVSFQYRIGEDGDPKAFLIEVSWTETYPQTAPVISMNAFFNNTISSAVKQSILAKLQEAVEVNLGTAMTYTLFEYAKDHKEQFMENHHPGNSATPVANIISVETPTTAPSSKKKEKKEQLSKAQKRKLADKTDHKGELPRGWNWVDVVKHLSKTGSKDDE	failed
GMTTRVLALDALVPIVAADNPVPRVSTPDLARALSGEISNWKELGGPDMPLVLHALARDISLEAALEARLGRPIAAEITHPDLASLAAAVARDPYALAITGQTARGAARVLPLTDSCGFPLVPSPLAVKSED	failed
ELREARLNAFFSGAPVGMSILDNQLRFVQINELIAHIHGKPAQEHIGKTLEEIAPRIAPLVTPLCQKVLLTGQPILNVELSLPAVNQADSLRHFLVSYFPIPGEGNQLSGVGKVIVEISDVYDELRLRKRAEEALKESI	not failed
SDDNKTTGATYDPNQPVTVESFMPVEGKLREKVIVKGSNFGTDKSKVKVYFVDEAAERLSTVIGIDNNTLYCLAPRQLPGGNRIKVIVDGKEVTTDGTFKYEQAQNVSTISGSASKDGNDDGDLASAKFKYMWGIAAVGNNTVLAYQRDDPRVRLISVDDNKVTTVHPGFKGGKPAVTKDKQRVYSIGWEGTHTVYVYMKASGWAPTRIGQLGSTFSGKIGAVALDETEEWLYFVDSNKNFGRFNVKTQEVTLIKQLELSGSLGTNPGPYLIYYFVDSNFYMSDQNLSSVYKITPDGECEWFCGSATQKTVQDGLREEALFAQPNGMTVDEDGNFYIVDGFKGYCLRKLDILDGYVSTVAGQVDVASQIDGTPLEATFNYPYDICYDGEGGYWIAEAWGKAIRKYAVE	not failed
MNHKQYLALAVPLIISTITTPLLGAVDTAVAGQLSSPAYIGGVAVGTMIFNTMYWLLGFLRVSTSGFAAQSLGSQNRSESVLALARPVFIALFAGLMFIILQKPLEYAALTLIQPDRHTAEFASQYFSLRIWGAPFALISYCILGWLMGMSLIKVTLLLQISMNVLNIVLDIVFVYVFHMEVYGIALATLISDVTGCLIGCWLVKTNAAMPFKLPSVKLLFDPKPFKKMMVVNRDLLIRTLCLLTVFNLFTAKGAGFGAEILAANAILIQIHYLMAYVFDGFANASSIFAGKAVGRMDRDLYSRTLSLSIQWSLISAALLSVGYFLLRNAILPLFTPLESVLEAAKTYDVWIALFPLAASFGLVFYGIFTGATEIGPVRNSMFLAVLVFLAAFFTAVPAFGNHGLWLAFLLFSLGRSVFLCMAVPGLTTRLFGERSAAREAGQRPKSLKHPG	failed
MENQTPSQALISKGWKYFIIVGVIVALAGLGATSLPVMAGVTISTIIGTLLLITGLVQVYHTFRIHSWKEKLWYVLSALFYIVGALFILFKPLEGLMTITTIMIVIMIFNGLTRMIFGFTNRSLPGCGMVILSGLLSVVIGGYFFSLFDNPEFSLSLLGTFVGVSLIFEGMSFLFIGLRLRNASKA	failed
TPLPHQLEVAQKVVEKMNGKAILADEVGLGKTVEAGLILKEYMIRGLAKKILILVPASLVSQWVKELQEKFLIPAVEQKKSYVWEQCDIVVSSIDTAKRSPHREIVLSIPYDLVIIDEAHKLKNSKTKNYEFVRNLVKKYCLLLTATPIQNRIEEIFNLVSLLKPGHL	failed
MKIKTSYLIYAVIATVFAGLSMVTDIFEKGNFEAIFSNLGMIIGLSILAYILITMAKSFIDLVINELKN	failed
MDTPILIPTDMNRIPFFYLLQISDPLFPIGGFTQSYGLETYVQKGIVHDAETSKKYLESYLLNSFLYNDLLAVRLSWEYTQKGNLNKVLELSEVFSASKAPRELRAANEKLGRRFIKILEFVLGENEMFCEMYEKVGRGSVEVSYPVMYGFCTNLLNIGKKEALSAVTYSAASSIINNCAKLVPISQNEGQKILFNAHGIFRRLLERVEELDEEYLGSCCFGFDLRAMQHERLYTRLYIS	failed
FTNHKGNPMQTERFNKILREAAKDVGIDKEVSSHILRHSHISLLSQQGVSLKAIMDRVGHSDHRTTLSIYSHVTEQMDKDMMNKLEQVKLG	failed
MDTSDLFASCRKGDVGRVRYLLEQRDVEVNVRDKWDSTPLYYACLCGHEELVLYLLANGARCEANTFDGERCLYGALSDPIRRALRDYKQVTASCRRRDYYDDFLQRLLEQGIHSDVVFVVHGKPFRVHRCVLGARSAYFANMLDTKWKGKSVVVLRHPLINPVAFGALLQYLYTGRLDIGVEHVSDCERLAKQCQLWDLLSDLEAKCEKVSEFVASKPGTCVKVLTIEPPPADPRLREDMALLADCALPPELRGDLWELPFPCPDGFNSCPDICFRVAGCSFLCHKAFFCGRSDYFRALLDDHFRESEEPATSGGPPAVTLHGISPDVFTHVLYYMYSDHTELSPEAAYDVLSVADMYLLPGLKRLCGRSLAQMLDEDTVVGVWRVAKLFRLARLEDQCTEYMAKVIEKLVEREDFVEAVKEEAAAVAARQETDSIPLVDDIRFHVASTVQTYSAIEEAQQRLRALEDLLVSIGLDC	failed
